Measured values taken from the supplement of paper PMC9170038.

Test system: K4 kissing-loop RNA reporter
Experiment: apparent KD of K4 kissing-loop reporter; higher = weaker reporter binding
Conditions: Eterna round: R107
Description: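 RNA-MaP round R107: designed RNA switches with theophylline, tryptophan, arginine or FMN aptamers are transcribed on-chip within common flanks. They are titrated with a labelled K4 kissing-loop RNA reporter in RNA-MaP buffer (100 mM Tris pH 7.5, 80 mM KCl, 4 mM MgCl2), without ligand or with the indicated ligand. Median apparent KD per design.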

[1] = input ligand: theophylline 20 uM
[2] = input ligand: tryptophan 2.4 mM
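Further: bound reporter read as fluorescence of individual clusters on recovered sequencing chips by microscopy, with normalized cluster intensities fitted with a binding model.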

Row | Sequence | apparent KD of K4 kissing-loop reporter (input ligand: FMN 200 uM) [nM] | apparent KD of K4 kissing-loop reporter (input ligand: arginine 13.2 mM) [nM] | apparent KD of K4 kissing-loop reporter (input ligand: none) [nM] | apparent KD of K4 kissing-loop reporter [1] [nM] | apparent KD of K4 kissing-loop reporter [2] [nM]
1 | GCGGGCGGCUGAAGGAGCGGGCGGGCCCGAGUGAUGUUCGGGUGGGCCGUGAGGCCCGGAGCCCAGGUAGGUCGCGGUUCCGUCC [#2 Same State - Arginine B Attempt #19 (HarryS)] | 162 | 113 | 126 | 170 | 147
2 | GCGGGCGGCUGAAGGAGCGGGCGGGCCCGAGUGAUGUUCGGGUGGGCUGUGAGGCCCGGAGCCCAGGUAGGUCGCGGUUCCGCCC [#2 Same State - Arginine B Attempt #26 (HarryS)] | 157 | 107 | 167 | 146 | 133
3 | GCGUGCAAGUCAUGAUGCCCUAUCAGGACUAAGGAUAUAGCGUGACCUAGAAGGUAGCUAGUGAUGUUGGCUGACAUGCUACUGC [theeternabot_exclusion_KL_FMN_A_49] | 482 | 227 | 367 | 376 | 376
4 | GCGUUAGUACUCGAUACCAGACCUCUAGUAGUGAUGUUGCUUGGCGAAGGCCUCGAACGAGUCCCUUGGCAGCGAGGAAAGAGGA [theeternabot_sameState_KL_Theo_B_4] | 506 | 387 | 584 | 376 | 450
5 | GCGUUCAUGGCAGGAUAUAGGUAAAGGAGUGAUGUUCCUUAUGUUGCAUUUACUUAAUCCAACUCCCUAGAAGGGCCAUGAACGC | 123 | 140 | 151 | 139 | 146
6 | GCUACUGCCUUAGGAUAUAGUUGAGUGAUGUUCAAGCAUAUGCAUGGGAAAACCAUGCAUAUGUCCCUAGAAGGGAGGCAGUAGC | 800 | 627 | 859 | 630 | 740
7 | GCUAUGGUAGGAAGGAGCGCGGACGAAAUAUAUCGAGUGAUGUUCGAAUAAUUAAAUAAAACGCAGGUAGGUCGCCUACUAUAGC [Arginine B K4 25] | 116 | 114 | 110 | 120 | 97.6
8 | GCUAUGGUAGGAAGGAGCGCGGACGAUAUUUAUCGAGUGAUGUUCGAAUAAUUAAAUAAAACGCAGGUAGGUCGCCUACUAUAGC [Arginine B K4 27] | 108 | 113 | 99.9 | 102 | 94
9 | GCUAUGGUAGGAAGGAGCGCUACUUUGUUUUUACGAGUGAUGUUCGGAAGCAGAGUGUUAAAGCAGGUAGGUCGCCUACUAUAGC [Arginine B K4 20] | 171 | 154 | 171 | 181 | 197
10 | GCUAUGGUAGGAAGGAGCGCUUAAUUACUAAUAAGAGUGAUGUUCGAUAGUAGGUAUUUAUAGCAGGUAGGUCGCCUACUAUAGC [KL-Arg B23] | 200 | 171 | 176 | 244 | 174
11 | GCUAUGGUUGGAAGGAGCGUUGAAUUGUUAGUAAGAGUGAUGUUCGAUAGUGGACAGUUGUAGCAGGUAGGUCGCCAACUAUAGC [KL-Arg B28] | 329 | 570 | 277 | 560 | 520
12 | GGAACGUUGCGGACUAUCGCAUAAAGUCACCGAGGACCGGUACGGCCGCCACUCGCCAGUGAUGUUGGCGUGUUUGCGCGCUGUA [Isteri] | 99.6 | 91.1 | 101 | 83.6 | 117
13 | GGAAGGAAGGGAAGGAGCGCGCAGGCAGUGAUGUUGCCAAACAAAACAAACAAAACAAAAGCGCAGGUAGGUCGCCCGAAGGACG | 67.8 | 92.8 | 89.7 | 126 | 62.9
14 | GGACCGCCAGUGAUGUUGGAGAUAAACUCCAAGGAUAUGACGAAAGUCAGAAGGUGGUAAUAAGACGUCAAAGACGUCAGGUCCA [FmnA 21 #SwitchBubble #K4Early] | 970 | 206 | 361 | 301 | 266
15 | GGAGAGGUCUUGUUUGGAUGUGUUUAAUGGCGAGGACCGGUACGGCCGCCACUCGGGUGAUGUUAGUGAUGUUGAUGUUGUGAUG ['oo'mullin] | 137 | 131 | 125 | 219 | 116
16 | GGAGGAGAAUAUGAUACCAGCAGAGAGAGAGAGGAAGUAUAGUGAUGUUAUAUGAGAGAAUGCCCUUGGCAGCAUAAGAAGAAGG [SSTheophylB.A] | 150 | 105 | 136 | 123 | 105
17 | GGAGGGAUCUCGGCCGCCACUCAUAAGAAAUGAACCUAAGAAAUAUAGUGAUGUUAUAUAAAGAAGAGGACCGGGAGAAAGGAGG [ExTryptoB.A] | 148 | 171 | 197 | 555 | 171

Row | Sequence | apparent KD of K4 kissing-loop reporter (input ligand: FMN 200 uM) [nM] | apparent KD of K4 kissing-loop reporter (input ligand: arginine 13.2 mM) [nM] | apparent KD of K4 kissing-loop reporter (input ligand: none) [nM] | apparent KD of K4 kissing-loop reporter [1] [nM] | apparent KD of K4 kissing-loop reporter [2] [nM]
18 | GGAGGGAUCUCGGCCGCCACUCAUAAGAAAUGAACCUCAGAAAUAUAGUGAUGUUAUAUAAAGAAGAGGACCGGGAGAAAGGAGG [ExTryptoB.B] | 167 | 137 | 161 | 158 | 168
19 | GGAGUGAUGUUCCAUUUUUAAAUCUCCGAUACCAGUAUGGAAACAUACCCUUGGCAGCGGUAAACCGCAGAUUAGGAAACUAGUC [Theophylline A K4 1] | 496 | 682 | 615 | 501 | 561
20 | GGAUAACAGGCAGGAUAUGCUUAGUAGUAAGGCCAUAUAUACGUAUAGAGUGAUGUUUUGUACAAGGCAGAAGGGCUAAAUCCAU [FMN B Excl V2 (+4G)] | 536 | 240 | 421 | 393 | 254
21 | GGAUAGGACAAAGGAUAUGGUAGUGAUGUUACCAAACUGGUUAAACAUGUCAGAAAACUGGCAUGACCAGAAGGUUGUCCUAUCG [FmnBX 27 A11+U75] | 86.4 | 62.8 | 66.3 | 61.1 | 66.9
22 | GGAUAGGACAGAGGAUAUGGACAGUCUACAAAGUAGGCUGAAUAAAUCCUUGAAUGGAGUGAUGUUCCAGAAGGCUGUCCUAUCG [FmnBX 22 #SwitchBubble #StaticStem #Palindromic] | 337 | 384 | 503 | 481 | 426
23 | GGAUAGGACAGAGGAUAUGGGCUAGGCAAGAAUAACUUGUCUAGCAAAUCCAUGAGGAGUGAUGUUCCAGAAGGUUGUCCUAUCG [FmnBX 1 U75] | 284 | 108 | 92.3 | 120 | 87.8
24 | GGAUAGGACAGAGGAUAUGGUAGUGAUGUUACCAAACUGGUUACUAAUGUCAGAAAACUGGCAAAUCCAGAAGGCUGUCCUAUCG [KL-XFMN-B13] | 278 | 76.3 | 85.2 | 69.5 | 82.3
25 | GGAUAGGAUAGAGGAUAUGGGUUAGGCAAGAAUAACUUGUCUUGUAAAUCCAUGAGGAGUGAUGUUCCAGAAGGCUGUCCUAUCG [MatMod 5 - Jieux - Exclusion - FMN B] | 301 | 113 | 112 | 114 | 93.6
26 | GGAUCCACCAGUGAUGUUGGAGAAAACUCAAAGGAUAUGACGAAAGUCAGAAGGUUGUAGACUGGACAAAGUCCGGUCGGAUCCA [FmnA 19 A30+U56] | 450 | 504 | 650 | 613 | 475
27 | GGAUCCACCAGUGAUGUUGGAGAAAACUCUAAGGAUAUGACGAAAGUCAGAAGGUAGUAGACUGGACAAAGUCCGGUCGGAUCCA [FmnA 23 U30+A56] | 583 | 376 | 1190 | 661 | 484
28 | GGAUCCACCAGUGAUGUUGGAGAAAACUUCAAGGAUAUGACGAAAGUCAGAAGGUGGUAGACUGGUCAAAGUCCGGUCGGAUCCA [FmnA10 U29+U66] | 658 | 120 | 459 | 147 | 194
29 | GGAUCCGCCAGUGAUGUUGGAGAAAACUCCAAGGAUAUGACGAAAGUCAGAAGGUGGUAGACUGGACAAAGUCCGGUCGGAUCCA [FmnA 26 #SwitchBubble #K4Early] | 761 | 331 | 932 | 157 | 442
30 | GGAUCGCAUGGCGAAAAGCCAUGCGAUCCACGAGGACCGGUACGGCCGCCACUCGCCGGAGUGAUGUUCCGCUACAGAUCUUAAA | 187 | 121 | 256 | 144 | 301
31 | GGAUUCACCAGUGAUGUUGGAGAAAACUCGAAGGAUAUGACGAAAGUCAGAAGGUCGUAGACUGGACAAAGUCCGGUCGGAUCCA [KL-SSFMN-A22] | 419 | 250 | 299 | 359 | 279
32 | GGAUUGCCAGUGAUGUUGGCAUAAACUGAAGGAGCGCGUGAAAACGCAGGUAGGUCGCAGAACCUUGCCAACUAUAUUAUUUACC [Ex Arginine A K4 22] | 111 | 137 | 123 | 146 | 102
33 | GGCACUUUUGCUUGGAACCGUCAAGCUCUUUAGGAUAUCUGGAAACAGAGAAGGAAAGACCUACAGAGUGAUGUUCUGCGUGCCU | 332 | 133 | 273 | 183 | 144
